# Measured values: patent US20230138047A1, “ANTI-CLAUDIN-1 MONOCLONAL ANTIBODIES FOR THE PREVENTION AND TREATMENT OF FIBROTIC DISEASES” (Université de Strasbourg, priority 2019, published 2023)
# T1: CLDN1 expressed on A549 cells (Homo sapiens, UniProt O95832)
# T1 construct: endogenous in cells; host or cells: A549
# T1 sequence (O95832 1-211): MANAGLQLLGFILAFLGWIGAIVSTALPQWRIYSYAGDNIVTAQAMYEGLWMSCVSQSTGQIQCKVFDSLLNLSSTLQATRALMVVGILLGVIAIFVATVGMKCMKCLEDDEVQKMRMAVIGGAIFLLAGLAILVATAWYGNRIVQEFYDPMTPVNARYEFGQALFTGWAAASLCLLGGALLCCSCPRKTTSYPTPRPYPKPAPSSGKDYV
# T2: CLDN1 expressed on RPTEC/TERT1 cells (Homo sapiens, UniProt O95832)
# T2 construct: endogenous in cells; host or cells: RPTEC/TERT1
# T2 sequence (O95832 1-211): T1 sequence (O95832 1-211)
# T3: CLDN1 on HREpic (PECs model) (Homo sapiens, UniProt O95832)
# T3 construct: Human Renal Epithelial Cells (HREpic), which are primary cell isolated from human kidney; host or cells: HREpic (Human Renal Epithelial Cells), TNFα-treated
# T3 sequence (O95832 1-211): T1 sequence (O95832 1-211)
# B1: H3L3: humanized anti-Claudin-1 monoclonal antibody, two VH of SEQ ID NO: 3 and two VL of SEQ ID NO: 6 (antibody, V domains shown)
# VH: QVQLVESGGGVVQPGRSLRLSCLGSGFSFSSYGMNWVRQAPGKGLEWVASISPSGSYFYYADSVKGRFTISRDNSKNTLYLQMTSLRAEDTAIYYCARLPGFNPPFDHWGQGTLVTVSS
# VL: DIQMTQSPSSLSASVGDRVTITCKASQNVGGNVDWYQWKPGKAPKLLIYGASNRYTGVPDRFRGSGSGTDFTLTISSLQPEDVATYYCLQYKNNPWTFGGGTKVEIK
# modifications: humanized variable heavy chain H3; humanized variable light chain L3
# Columns and labels:
# [1] = test system: TGF-β signalling; test: TGF-β signaling reporter assay in A549 cells; type: cell-based; details: 50 μg/mL for 3 hours, TGF-β 10 ng/mL
# Procedure: TGF-β Signaling Reporter Assay. A549 cells were transfected with TGF-β signalling reporter plasmid pGLA4.48[luc2P/SBE/Hygro] (Promega) using Fugene according to the manufacturer's instructions. Following transfection, the cells were supplemented with fresh medium containing control or CLDN1-specific mAb (50 μg/mL) for 3 hours at 37° C. Fresh medium was supplemented to the cells containing TGF-β (10 ng/mL) (Sigma) for 3 hours at 37° C. The plate was incubated for 15 minutes at room temperature followed by addition of ONE-Glo substrate (Promega) for 3 minutes at room temperature. Luminescence of the supernatants was read using a Berthold microplate reader.
# [2] = biological target: T1, CLDN1 expressed on A549 cells; test: Flow cytometry binding study on A549 lung cells; set-up: unit not given here
# Procedure: (§1) Cell Lines. The kidney cancer cell line RPTEC/TERT1 and lung cancer cell line A549, both originally from ATCC, were obtained from IGBMC in a collaboration with Dr. Irwin Davidson and Dr. Izabella Sumara, respectively. Both cell lines were cultured according to provider's instructions: the RPTEC/TERT1 kidney cancer cells were grown in ATCC-formulated DMEM:F12 Medium supplemented with hTERT RPTEC Growth Kit and 0.1 mg/mL G418. The A549 lung cancer cells were grown in ATCC-formulated F-12K Medium supplemented with 10% fetal bovine serum.
# (§2) Binding Studies. Cells were de-attached using a solution of EDTA (4 mM) and re-suspended in PBS containing 1% FBS at 4° C. Then, 150,000 cells were incubated with increasing concentrations of the humanized H3L3 CLDN1-specific mAb (see WO/2017/162678) and the binding signals were read by flow cytometry after incubation with PE-labelled anti-human using a dilution of 1:100 and analyzed with Cytoflex and FlowJo V10. Two washes with PBS containing 1% FBS were performed after every antibody incubation. A binding curve for each cell line was built using the PE median fluorescence intensity (MFI) and the Kd of the interaction was calculated by applying the Michaelis-Menten mathematical model in R 3.5.1.
# [3] = test system: Human Renal Epithelial Cells (HREpic); test: HREpic 3D-culture proliferation/viability (ATP quantification); type: cell-based; details: TNFα 10 ng/mL, 10 μg/mL antibody, 6 days, preliminary data
# Procedure: (§3) Cells. Human Renal Epithelial Cells (HREpic) were purchased from ScienCell Research Laboratories and grown in Epithelial Cell Medium according to manufacturer's instructions.
# H3L3 Treatment. For 2D-culture, cells were seeded in 24-well plates coated with Poly-L-Lysine at a cell density of 5.10^4 cells/well. After 24 hours, the cells were treated with TNFα 10 ng/mL and Mota (10 μg/mL) or H3L3 (10 μg/mL). After 3 days, the cells were again treated with TNFα and antibody for 3 more days. After 6 days of treatment in total, the cells were lysed to measure gene expression by qRT-PCR. For 3D-culture, cells were seeded in 96-well ultra-low attachment plates (Corning, Sigma Aldrich, France) at a cell density of 5×10^3 cells/well. The same treatment as described above was applied for 6 days. Cell viability was assessed by ATP quantification using CellTitreGlo (Promega) according to manufacturer's instructions.
# Statistics. Data are presented as the mean±s.d. and were analyzed by the unpaired Student's t-test or the two-tailed Mann-Whitney test as indicated after determination of distribution by the Shapiro-Wilk normality test. All experiments were performed at least in triplicates for 2D-culture and quadruplicates for 3D-culture. Data are considered as significant at p<0.05. Statistical analyzes for in vitro experiments were performed with GraphPad Prism 6 software.
# [4] = biological target: T2, CLDN1 expressed on RPTEC/TERT1 cells; test: Flow cytometry binding study on RPTEC/TERT1 kidney cells
# Procedure: as §1, §2
# [5] = test system: Adriamycin-induced nephropathy; test: Adriamycin-induced nephropathy model; type: in vivo, BALB/c mice; details: 250 μg/mouse i.p. twice weekly, 27 days; versus control group and valproic acid group
# Procedure: The Adriamycin-induced nephropathy (ADR) model is a well-characterized disease model for chronic kidney disease and mirrors human kidney disease caused by primary focal segmental glomerulosclerosis (FSGS). The Adriamycin-induced nephropathy is a mouse model the mimics human FSGS (Focal Segmental Glomerulosclerosis). An efficacy study was performed at SMC lab (Tokyo, Japan) in accordance with local standards of ethics and animal care. Induction of Adriamycin-induced nephropathy model started on Day 0, when mice were intravenously administered adriamycin (doxorubicin hydrochloride, Wako Pure Chemical Industries, Ltd., Japan) in 0.9% saline at a dose of 13 mg/kg, in a volume of 10 mL/kg.
# Groups of eight Adriamycin-induced nephropathic male BALB/c mice were administered either vehicle [saline], anti-CLDNA 1 mAb H3L3 (250 μg/mouse, twice weekly) intraperitoneally, or VPA (=valproic acid, provided at 0.4% in the drinking water) as a positive control for 27 days. Serum creatinine and BUN (blood urea nitrogen) was measured by FUJI DRI-CHEM 7000 (Fujifilm Corporation, Japan).
# [6] = biological target: T3, CLDN1 on HREpic (PECs model); test: Flow cytometry binding on Human Renal Epithelial Cells (HREpic); details: 10 μg/mL, 24 hours after TNFα 10 ng/mL
# Procedure: as §3
# Flow cytometry. H3L3 binding and expression of human CLDN1 in HREpic was analyzed by flow cytometry 24 hours after TNFα treatment (10 ng/mL). Briefly, 200,000 cells per conditions were stained using H3L3 (10 μg/mL) or Mota (10 μg/mL) used as negative control. Primary antibodies were detected using an Alexa fluor 647-conjugated human-specific secondary antibody. Data were acquired using Cytoflex B2R2V0 (Beckman Coulter) and analyzed using CytExpert 2.1 and FlowJo v10. CLDN1 expression is shown as the difference of the mean fluorescence intensities of cells stained with H3L3 and cells stained with Mota.
molecule,measurement,setting,value
B1,TGF-β reporter activity,[1],significant reduction
same,concentration saturating the epitope,[2],20
same,cell proliferation/viability,[3],slight decrease
same,concentration saturating the epitope,[4],50 µg/mL
same,serum BUN,[5],non-significant but pronounced reduction
same,serum creatinine,[5],non-significant but pronounced reduction
same,binding to PECs CLDN1,[6],binds to PECs CLDN1
